To fix the notation:
B1: Monocarboxylate transporter 2 (Homo sapiens), O60669 (parent)
chain: MPPMPSAPPVHPPPDGGWGWIVVGAAFISIGFSYAFPKAVTVFFKEIQQIFHTTYSEIAWISSIMLAVMYAGGPVSSVLVNKYGSRPVVIAGGLLCCLGMVLASFSSSVVQLYLTMGFITGLGLAFNLQPALTIIGKYFYRKRPMANGLAMAGSPVFLSSLAPFNQYLFNTFGWKGSFLILGSLLLNACVAGSLMRPLGPNQTTSKSKNKTGKTEDDSSPKKIKTKKSTWEKVNKYLDFSLFKHRGFLIYLSGNVIMFLGFFAPIIFLAPYAKDQGIDEYSAAFLLSVMAFVDMFARPSVGLIANSKYIRPRIQYFFSFAIMFNGVCHLLCPLAQDYTSLVLYAVFFGLGFGSVSSVLFETLMDLVGAPRFSSAVGLVTIVECGPVLLGPPLAGKLVDLTGEYKYMYMSCGAIVVAASVWLLIGNAINYRLLAKERKEENARQKTRESEPLSKSKHSEDVNVKVSNAQSVTSERETNI
B2: FERM and PDZ domain-containing protein 4 (Homo sapiens), Q14CM0 (parent)
chain: MDVFSFVKIAKLSSHRTKSSGWPPPSGTWGLSQVPPYGWEMTANRDGRDYFINHMTQAIPFDDPRLESCQIIPPAPRKVEMRRDPVLGFGFVAGSEKPVVVRSVTPGGPSEGKLIPGDQIVMINDEPVSAAPRERVIDLVRSCKESILLTVIQPYPSPKSAFISAAKKARLKSNPVKVRFSEEVIINGQVSETVKDNSLLFMPNVLKVYLENGQTKSFRFDCSTSIKDVILTLQEKLSIKGIEHFSLMLEQRTEGAGTKLLLLHEQETLTQVTQRPSSHKMRCLFRISFVPKDPIDLLRRDPVAFEYLYVQSCNDVVQERFGPELKYDIALRLAALQMYIATVTTKQTQKISLKYIEKEWGLETFLPSAVLQSMKEKNIKKALSHLVKANQNLVPPGKKLSALQAKVHYLKFLSDLRLYGGRVFKATLVQAEKRSEVTLLVGPRYGISHVINTKTNLVALLADFSHVNRIEMFSEEESLVRVELHVLDVKPITLLMESSDAMNLACLTAGYYRLLVDSRRSIFNMANKKNTATQETGPENKGKHNLLGPDWNCIPQMTTFIGEGEQEAQITYIDSKQKTVEITDSTMCPKEHRHLYIDNAYSSDGLNQQLSQPGEAPCEADYRSLAQRSLLTLSGPETLKKAQESPRGAKVSFIFGDFALDDGISPPTLGYETLLDEGPEMLEKQRNLYIGSANDMKGLDLTPEAEGIQFVENSVYANIGDVKSFQAAEGIEEPLLHDICYAENTDDAEDEDEVSCEEDLVVGEMNQPAILNLSGSSDDIIDLTSLPPPEGDDNEDDFLLRSLNMAIAAPPPGFRDSSDEEDSQSQAASFPEDKEKGSSLQNDEIPVSLIDAVPTSAEGKCEKGLDNAVVSTLGALEALSVSEEQQTSDNSGVAILRAYSPESSSDSGNETNSSEMTESSELATAQKQSENLSRMFLATHEGYHPLAEEQTEFPASKTPAGGLPPKSSHALAARPATDLPPKVVPSKQLLHSDHMEMEPETMETKSVTDYFSKLHMGSVAYSCTSKRKSKLADGEGKAPPNGNTTGKKQQGTKTAEMEEEASGKFGTVSSRDSQHLSTFNLERTAFRKDSQRWYVATEGGMAEKSGLEAATGKTFPRASGLGAREAEGKEEGAPDGETSDGSGLGQGDRFLTDVTCASSAKDLDNPEDADSSTCDHPSKLPEADESVARLCDYHLAKRMSSLQSEGHFSLQSSQGSSVDAGCGTGSSGSACATPVESPLCPSLGKHLIPDASGKGVNYIPSEERAPGLPNHGATFKELHPQTEGMCPRMTVPALHTAINTEPLFGTLRDGCHRLPKIKETTV
B3: Solute carrier family 15 member 5 (Homo sapiens), A6NIM6 (parent)
chain: MSVTGFTITDEKVHLYHSIEKEKTVRHIGDLCSSHSVKKIQVGICLLLVELCERFTFFEVVCNMIPFCTIKLGYHNCQAAILNLCFIGTSILTPVFVRWLTDVYLGRNKLVYICLFLHFLGTALLSVVAFPLEDFYLGTYHAVNNIPKTEQHRLFYVALLTICLGIGGVRAIVCPLGAFGLQEYGSQKTMSFFNWFYWLMNLNATIVFLGISYIQHSQAWALVLLIPFMSMLMAVITLHMIYYNLIYQSEKRCSLLTGVGVLVSALKTCHPQYCHLGRDVTSQLDHAKEKNGGCYSELHVEDTTFFLTLLPLFIFQLLYRMCIMQIPSGYYLQTMNSNLNLDGFLLPIAVMNAISSLPLLILAPFLEYFSTCLFPSKRVGSFLSTCIIAGNLFAALSVMIAGFFEIHRKHFPAVEQPLSGKVLTVSSMPCFYLILQYVLLGVAETLVNPALSVISYRFVPSNVRGTSMNFLTLFNGFGCFTGALLVKLVYLISDGNWFPNTLNKGNLESFFFFLASLTLLNVLGFCSVSQRYCNLNHFNAQNIRGSNLEETLLLHEKSLKFYGSIQEFSSSIDLWETAL
B4: Corticotropin-releasing factor receptor 1 (Homo sapiens), P34998-1 (parent)
chain: MGGHPQLRLVKALLLLGLNPVSASLQDQHCESLSLASNISGLQCNASVDLIGTCWPRSPAGQLVVRPCPAFFYGVRYNTTNNGYRECLANGSWAARVNYSECQEILNEEKKSKVHYHVAVIINYLGHCISLVALLVAFVLFLRLRPGCTHWGDQADGALEVGAPWSGAPFQVRRSIRCLRNIIHWNLISAFILRNATWFVVQLTMSPEVHQSNVGWCRLVTAAYNYFHVTNFFWMFGEGCYLHTAIVLTYSTDRLRKWMFICIGWGVPFPIIVAWAIGKLYYDNEKCWFGKRPGVYTDYIYQGPMILVLLINFIFLFNIVRILMTKLRASTTSETIQYRKAVKATLVLLPLLGITYMLFFVNPGEDEVSRVVFIYFNSFLESFQGFFVSVFYCFLNSEVRSAIRKRWHRWQDKHSIRARVARAMSIPTSPTRVSFHSIKQSTAV
B5: Guanylate cyclase soluble subunit alpha-2 (Homo sapiens), P33402 (parent)
chain: MSRRKISSESFSSLGSDYLETSPEEEGECPLSRLCWNGSRSPPGPLEPSPAAAAAAAAPAPTPAASAAAAAATAGARRVQRRRRVNLDSLGESISRLTAPSPQTIQQTLKRTLQYYEHQVIGYRDAEKNFHNISNRCSYADHSNKEEIEDVSGILQCTANILGLKFEEIQKRFGEEFFNICFHENERVLRAVGGTLQDFFNGFDALLEHIRTSFGKQATLESPSFLCKELPEGTLMLHYFHPHHIVGFAMLGMIKAAGKKIYRLDVEVEQVANEKLCSDVSNPGNCSCLTFLIKECENTNIMKNLPQGTSQVPADLRISINTFCRAFPFHLMFDPSMSVLQLGEGLRKQLRCDTHKVLKFEDCFEIVSPKVNATFERVLLRLSTPFVIRTKPEASGSENKDKVMEVKGQMIHVPESNSILFLGSPCVDKLDELMGRGLHLSDIPIHDATRDVILVGEQAKAQDGLKKRMDKLKATLERTHQALEEEKKKTVDLLYSIFPGDVAQQLWQGQQVQARKFDDVTMLFSDIVGFTAICAQCTPMQVISMLNELYTRFDHQCGFLDIYKVETIGDAYCVAAGLHRKSLCHAKPIALMALKMMELSEEVLTPDGRPIQMRIGIHSGSVLAGVVGVRMPRYCLFGNNVTLASKFESGSHPRRINVSPTTYQLLKREESFTFIPRSREELPDNFPKEIPGICYFLEVRTGPKPPKPSLSSSRIKKVSYNIGTMFLRETSL
B6: Peroxiredoxin-5, mitochondrial (Homo sapiens), P30044 (parent)
chain: MGLAGVCALRRSAGYILVGGAGGQSAAAAARRYSEGEWASGGVRSFSRAAAAMAPIKVGDAIPAVEVFEGEPGNKVNLAELFKGKKGVLFGVPGAFTPGCSKTHLPGFVEQAEALKAKGVQVVACLSVNDAFVTGEWGRAHKAEGKVRLLADPTGAFGKETDLLLDDSLVSIFGNRRLKRFSMVVQDGIVKALNVEPDGTGLTCSLAPNIISQL

One test covers variants of B1. The note with it: with scrib_human SCRIB.
With MPPMPSAPPVHPPPDGGWGWIVVGAAFISIGFSYAFPKAVTVFFKEIQQIFHTTYSEIAWISSIMLAVMYAGGPVSSVLVNKYGSRPVVIAGGLLCCLGMVLASFSSSVVQLYLTMGFITGLGLAFNLQPALTIIGKYFYRKRPMANGLAMAGSPVFLSSLAPFNQYLFNTFGWKGSFLILGSLLLNACVAGSLMRPLGPNQTTSKSKNKTGKTEDDSSPKKIKTKKSTWEKVNKYLDFSLFKHRGFLIYLSGNVIMFLGFFAPIIFLAPYAKDQGIDEYSAAFLLSVMAFVDMFARPSVGLIANSKYIRPRIQYFFSFAIMFNGVCHLLCPLAQDYTSLVLYAVFFGLGFGSVSSVLFETLMDLVGAPRFSSAVGLVTIVECGPVLLGPPLAGKLVDLTGEYKYMYMSCGAIVVAASVWLLIGNAINYRLLAKERKEENARQKTRESEPLSKSKHSEDVNVKVSNAQSVTEERETNI [S472E], the “effect of a mutation on the interaction” value is “decreasing interaction strength”.

In another test the parent is B2. The note with it: with scrib_human SCRIB.
Take T1320E: the “effect of a mutation on the interaction” value is reported as “disrupting interaction strength”.

The next test covers variants of B2. As to conditions: with dlg1_human DLG1, Q12959.
As for T1320E, the “effect of a mutation on the interaction” value was “disrupting interaction strength”.

In the next test the parent is B3. The note with it: with scrib_human SCRIB.
In the case of MSVTGFTITDEKVHLYHSIEKEKTVRHIGDLCSSHSVKKIQVGICLLLVELCERFTFFEVVCNMIPFCTIKLGYHNCQAAILNLCFIGTSILTPVFVRWLTDVYLGRNKLVYICLFLHFLGTALLSVVAFPLEDFYLGTYHAVNNIPKTEQHRLFYVALLTICLGIGGVRAIVCPLGAFGLQEYGSQKTMSFFNWFYWLMNLNATIVFLGISYIQHSQAWALVLLIPFMSMLMAVITLHMIYYNLIYQSEKRCSLLTGVGVLVSALKTCHPQYCHLGRDVTSQLDHAKEKNGGCYSELHVEDTTFFLTLLPLFIFQLLYRMCIMQIPSGYYLQTMNSNLNLDGFLLPIAVMNAISSLPLLILAPFLEYFSTCLFPSKRVGSFLSTCIIAGNLFAALSVMIAGFFEIHRKHFPAVEQPLSGKVLTVSSMPCFYLILQYVLLGVAETLVNPALSVISYRFVPSNVRGTSMNFLTLFNGFGCFTGALLVKLVYLISDGNWFPNTLNKGNLESFFFFLASLTLLNVLGFCSVSQRYCNLNHFNAQNIRGSNLEETLLLHEKSLKFYGSIQEFSSEIDLWETAL [S571E], the “effect of a mutation on the interaction” value is “decreasing interaction strength”.

In a further test the parent is B4. The note with it: with scrib_human SCRIB.
Consider MGGHPQLRLVKALLLLGLNPVSASLQDQHCESLSLASNISGLQCNASVDLIGTCWPRSPAGQLVVRPCPAFFYGVRYNTTNNGYRECLANGSWAARVNYSECQEILNEEKKSKVHYHVAVIINYLGHCISLVALLVAFVLFLRLRPGCTHWGDQADGALEVGAPWSGAPFQVRRSIRCLRNIIHWNLISAFILRNATWFVVQLTMSPEVHQSNVGWCRLVTAAYNYFHVTNFFWMFGEGCYLHTAIVLTYSTDRLRKWMFICIGWGVPFPIIVAWAIGKLYYDNEKCWFGKRPGVYTDYIYQGPMILVLLINFIFLFNIVRILMTKLRASTTSETIQYRKAVKATLVLLPLLGITYMLFFVNPGEDEVSRVVFIYFNSFLESFQGFFVSVFYCFLNSEVRSAIRKRWHRWQDKHSIRARVARAMSIPTSPTRVSFHSIKQETAV [S441E], for which the “effect of a mutation on the interaction” value is on record as “with no effect”.

The variants in the next test derive from B4. The note with it: with dlg1_human DLG1, Q12959.
In the case of MGGHPQLRLVKALLLLGLNPVSASLQDQHCESLSLASNISGLQCNASVDLIGTCWPRSPAGQLVVRPCPAFFYGVRYNTTNNGYRECLANGSWAARVNYSECQEILNEEKKSKVHYHVAVIINYLGHCISLVALLVAFVLFLRLRPGCTHWGDQADGALEVGAPWSGAPFQVRRSIRCLRNIIHWNLISAFILRNATWFVVQLTMSPEVHQSNVGWCRLVTAAYNYFHVTNFFWMFGEGCYLHTAIVLTYSTDRLRKWMFICIGWGVPFPIIVAWAIGKLYYDNEKCWFGKRPGVYTDYIYQGPMILVLLINFIFLFNIVRILMTKLRASTTSETIQYRKAVKATLVLLPLLGITYMLFFVNPGEDEVSRVVFIYFNSFLESFQGFFVSVFYCFLNSEVRSAIRKRWHRWQDKHSIRARVARAMSIPTSPTRVSFHSIKQETAV [S441E], the “effect of a mutation on the interaction” value was “increasing interaction strength”.

Turning to MGGHPQLRLVKALLLLGLNPVSASLQDQHCESLSLASNISGLQCNASVDLIGTCWPRSPAGQLVVRPCPAFFYGVRYNTTNNGYRECLANGSWAARVNYSECQEILNEEKKSKVHYHVAVIINYLGHCISLVALLVAFVLFLRLRPGCTHWGDQADGALEVGAPWSGAPFQVRRSIRCLRNIIHWNLISAFILRNATWFVVQLTMSPEVHQSNVGWCRLVTAAYNYFHVTNFFWMFGEGCYLHTAIVLTYSTDRLRKWMFICIGWGVPFPIIVAWAIGKLYYDNEKCWFGKRPGVYTDYIYQGPMILVLLINFIFLFNIVRILMTKLRASTTSETIQYRKAVKATLVLLPLLGITYMLFFVNPGEDEVSRVVFIYFNSFLESFQGFFVSVFYCFLNSEVRSAIRKRWHRWQDKHSIRARVARAMSIPTSPTRVSFHEIKQETAV [S437E;S441E], the “effect of a mutation on the interaction” value is listed as “increasing interaction strength”.

Variants of B5 are the subject of the next test. The note with it: with scrib_human SCRIB.
With S731E, the “effect of a mutation on the interaction” value was “increasing interaction strength”.

In the next test the parent is B6. The note with it: with scrib_human SCRIB.
For the variant MGLAGVCALRRSAGYILVGGAGGQSAAAAARRYSEGEWASGGVRSFSRAAAAMAPIKVGDAIPAVEVFEGEPGNKVNLAELFKGKKGVLFGVPGAFTPGCSKTHLPGFVEQAEALKAKGVQVVACLSVNDAFVTGEWGRAHKAEGKVRLLADPTGAFGKETDLLLDDSLVSIFGNRRLKRFSMVVQDGIVKALNVEPDGTGLTCSLAPNIIEQL [S212E], the “effect of a mutation on the interaction” value was “with no effect”.

(Values after IntAct's records for PubMed 30126976.)
